What was measured:
[1] = biological target: human μ-opioid receptor (AtT20FlpInMOR cells) (human) (UniProt P35372)
[2] = biological target: human μ-opioid receptor-RlucII (human) (UniProt P35372)
[3] = biological target: rat HA-μ-opioid receptor (rat) (UniProt P33535)
UniProt P33535, sequence (P33535 whole entry): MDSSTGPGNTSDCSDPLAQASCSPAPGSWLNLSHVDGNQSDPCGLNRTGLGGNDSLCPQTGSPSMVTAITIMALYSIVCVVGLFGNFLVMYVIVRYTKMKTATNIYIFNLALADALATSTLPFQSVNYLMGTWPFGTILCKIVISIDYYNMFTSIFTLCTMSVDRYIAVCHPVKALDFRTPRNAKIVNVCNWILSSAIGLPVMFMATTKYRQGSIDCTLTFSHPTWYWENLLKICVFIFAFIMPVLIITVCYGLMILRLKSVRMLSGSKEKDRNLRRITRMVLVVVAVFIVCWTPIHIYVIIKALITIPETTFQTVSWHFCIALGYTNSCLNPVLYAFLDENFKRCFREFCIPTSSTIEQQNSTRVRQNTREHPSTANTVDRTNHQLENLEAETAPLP

## [D-Ala^2, N-MePhe^4, Gly-ol]-enkephalin (peptide)
[1]
  apparent rate constant of dissociation (koff): decay of the membrane potential response to the EC75 concentration after naloxone 10 μM, AtT20 cells: > 0.126 s⁻¹
  apparent rate of dissociation (t1/2): decay of the membrane potential response to the EC75 concentration after naloxone 10 μM, AtT20 cells: < 5.5 s
  membrane potential dye fluorescence (hyperpolarisation) in μ-opioid receptor-expressing AtT20 cells, agonist pEC50, first set of experiments (log M (printed under pEC50)): -7.98
  membrane potential dye fluorescence (hyperpolarisation) in μ-opioid receptor-expressing AtT20 cells, agonist pEC50, second set of experiments (log M (printed under pEC50)): -8.12
[2]
  β-arrestin 2 translocation BRET (μ-opioid receptor-RlucII with β-arrestin-2-GFP) in HEK293T cells, agonist pEC50, first set (log M (printed under pEC50)): -6.12
  β-arrestin 2 translocation BRET (μ-opioid receptor-RlucII with β-arrestin-2-GFP) in HEK293T cells, agonist pEC50, second set (log M (printed under pEC50)): -6.33
[3]
  Gi protein activation BRET (decrease of BRET between Gαi1-RlucII and GFP10-Gγ2) in HEK293T cells, agonist pEC50, first set (log M (printed under pEC50)): -6.82
  Gi protein activation BRET (decrease of BRET between Gαi1-RlucII and GFP10-Gγ2) in HEK293T cells, agonist pEC50, second set (log M (printed under pEC50)): -6.99

Reference: PMC7618119
